Reference: patent US20110244493A1 (COMMONWEALTH MEDICAL COLLEGE, published 2011)

Target: T1, cytoskeletal associated protein 4 (CKAP4), endogenous in HeLa or normal bladder epithelial cells (Homo sapiens, UniProt Q07065 1-602, reversibly palmitoylated on cysteine 100)
T1 sequence: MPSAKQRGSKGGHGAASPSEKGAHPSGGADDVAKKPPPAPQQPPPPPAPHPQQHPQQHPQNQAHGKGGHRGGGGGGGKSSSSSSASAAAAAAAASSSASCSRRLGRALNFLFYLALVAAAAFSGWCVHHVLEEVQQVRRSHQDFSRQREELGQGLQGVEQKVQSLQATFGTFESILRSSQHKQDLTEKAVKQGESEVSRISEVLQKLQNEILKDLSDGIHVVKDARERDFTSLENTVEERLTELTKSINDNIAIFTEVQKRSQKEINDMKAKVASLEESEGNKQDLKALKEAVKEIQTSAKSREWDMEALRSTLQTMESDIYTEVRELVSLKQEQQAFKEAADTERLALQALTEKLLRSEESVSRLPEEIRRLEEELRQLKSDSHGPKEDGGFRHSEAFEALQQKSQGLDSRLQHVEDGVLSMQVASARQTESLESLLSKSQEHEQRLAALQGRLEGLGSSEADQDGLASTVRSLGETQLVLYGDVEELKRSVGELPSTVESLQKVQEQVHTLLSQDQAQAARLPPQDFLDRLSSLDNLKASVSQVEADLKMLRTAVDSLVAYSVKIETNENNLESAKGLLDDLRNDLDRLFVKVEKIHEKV
Assay: cell-based or functional assay

B1: antiproliferative factor (APF), synthetic (peptide)
peptide: TVPAAVVVA
modifications: sialic acid α-2,3 linked to galactose P1-3-N-acetylgalactosamine, which is α-O-linked to the N-terminal threonine residue of the nonapeptide (printed as '3 carbohydrate moieties-T-V-P-A-A-V-V-V-A')
abundance of CKAP4 in the nucleus (nuclear fractionation and Western blot, HeLa cells): 5 fold
